Results: US20170022281A1 (AbbVie / Abbott, published 2017)

Columns and labels:
[1] = target: T1, cyno PRLR ECD-his6 protein (cyno); experiment: ELISA on ECD
T1 chain: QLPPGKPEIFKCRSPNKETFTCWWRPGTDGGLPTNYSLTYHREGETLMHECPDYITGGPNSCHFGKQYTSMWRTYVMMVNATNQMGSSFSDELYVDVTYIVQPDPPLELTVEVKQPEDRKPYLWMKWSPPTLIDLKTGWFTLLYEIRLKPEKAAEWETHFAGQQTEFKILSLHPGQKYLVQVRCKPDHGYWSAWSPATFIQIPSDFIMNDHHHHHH
In short: (§1)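 PRLR was captured on blocked plates for 1 h, then incubated 1 h with serial antibody dilutions in PBS pH 7.4/0.05% Tween 20 containing 10% Superblock. HRP secondary and TMB gave signal read at 450 nm, and EC50 came from curve fitting.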

[2] = target: T2, human PRLR ECD-Fc fusion protein (human, UniProt P16471 25-233); experiment: ELISA on ECD
T2 construct: not shown: Fc region (captured by goat anti-human Fc)
T2 sequence: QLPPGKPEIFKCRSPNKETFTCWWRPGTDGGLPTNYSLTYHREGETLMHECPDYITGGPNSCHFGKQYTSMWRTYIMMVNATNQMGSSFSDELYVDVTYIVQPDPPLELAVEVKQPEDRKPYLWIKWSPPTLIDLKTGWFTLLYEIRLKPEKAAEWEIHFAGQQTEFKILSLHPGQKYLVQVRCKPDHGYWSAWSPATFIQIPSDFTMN
In short: as §1

[3] = target: T3, human PRLR (Biacore antigen) (human, UniProt P16471 25-234, limits assumed); experiment: SPR simultaneous binding; PRLR held by surface mAb Ab21
T3 construct: The construct injected over captured antibody is not described (a soluble form is likely); also called huPRLR
T3 sequence: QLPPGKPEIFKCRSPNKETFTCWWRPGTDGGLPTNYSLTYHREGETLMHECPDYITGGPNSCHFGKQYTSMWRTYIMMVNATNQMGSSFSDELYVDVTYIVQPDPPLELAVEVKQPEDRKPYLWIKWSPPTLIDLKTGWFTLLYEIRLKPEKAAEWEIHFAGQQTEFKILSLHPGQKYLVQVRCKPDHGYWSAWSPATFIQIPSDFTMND
Procedure: (§2) Running buffer was HBS-EP+ (10 mM Hepes, pH7.4, 150 mM NaCl, 3 mM EDTA, 0.05% surfactant). Assay was performed at 12° C. using Biacore T200 and CM5 sensor chips with anti-human IgG (Pierce) amine-coupled in all 4 flow cells to ˜2000 RU.
(§3) Separate test mAbs were captured in flowcells 2, 3 & 4 (flowcell 1 was reference, no test mAb). All 4 flowcells were then blocked by injection with isotype control mAb at 50 ug/ml. All 4 flowcells were then injected with antigen or buffer only (buffer only is for double referencing, done for each mAb pair individually). All 4 flowcells were then injected with 2nd test mAb at 10 ug/ml. All 4 flowcells were then regenerated with glycine, pH1.5.

[4] = target: T3, human PRLR (Biacore antigen); experiment: SPR simultaneous binding; PRLR held by surface mAb Ab30
Procedure: as §2, §3

[5] = target: T3, human PRLR (Biacore antigen); experiment: SPR simultaneous binding; PRLR held by surface mAb Ab39
Procedure: as §2, §3

[6] = target: T3, human PRLR (Biacore antigen); experiment: SPR simultaneous binding; PRLR held by surface mAb Ab48
Procedure: as §2, §3

[7] = target: T3, human PRLR (Biacore antigen); experiment: SPR simultaneous binding; PRLR held by surface mAb Ab49
Procedure: as §2, §3

[8] = target: T3, human PRLR (Biacore antigen); experiment: SPR simultaneous binding; PRLR held by surface mAb chAb5
Procedure: as §2, §3

[9] = target: T3, human PRLR (Biacore antigen); experiment: SPR simultaneous binding; PRLR held by surface mAb chAb6
Procedure: as §2, §3

[10] = target: T3, human PRLR (Biacore antigen); experiment: SPR simultaneous binding; PRLR held by surface mAb chAb7
Procedure: as §2, §3

[11] = target: T3, human PRLR (Biacore antigen); experiment: SPR simultaneous binding; PRLR held by surface mAb chAb8
Procedure: as §2, §3

[12] = target: T3, human PRLR (Biacore antigen); experiment: SPR simultaneous binding; PRLR held by surface mAb LFA102
Procedure: as §2, §3

B1: chAb8 (antibody, human IgG1, kappa, V domains shown)
VH: EVQLQQSGPELVKPGASVKISCKASGYTFTDYNIHWVKQSHGKSLEWIGYIYPNNDGTGYNQKFKSKATLTVDNSSSTAYMEVRSLTSEDSAVYYCARGDGNYVGDMDYWGQGTSVTVSS
VL: DIQMTQSPASLSASVGETVTITCRASENIYSYLAWYQQKQGKPPQLLVYNAKTLAEGVPSRFSGGGSGTQFSLKINSLQPEDFGSYYCQHHYATPFTFGSGTKLEIKT
notes: chimeric, murine variable and human G1/kappa constant regions
Question: What does the source list for B1?
Answer: EC50 [1]: 0.191 nM; EC50 [2]: 0.08 nM; solution mAb binding, % of PRLR binding [3]: -1%; solution mAb binding, % of PRLR binding [4]: -1%; solution mAb binding, % of PRLR binding [5]: -2%; solution mAb binding, % of PRLR binding [6]: -1%; solution mAb binding, % of PRLR binding [7]: -1%; solution mAb binding, % of PRLR binding [8]: 0%; solution mAb binding, % of PRLR binding [9]: -1%; solution mAb binding, % of PRLR binding [10]: 0%; solution mAb binding, % of PRLR binding [11]: -1%; solution mAb binding, % of PRLR binding [12]: -2%

B2: chAb7 (antibody, human IgG1, kappa, V domains shown)
VH: QVQLQQPGAELVMPGTSVKLSCKASGYTFTSYWIHWVKQRPGQGLEWIGEIDPSDSYTNYNQKFKGKATLTVDRSSSTAYMQLSSLTSEDSAVYYCGRSFFTNWFAYWGQGTLVTVSA
VL: DVVMTQTPLSLPVSLGDQASISCRSSQSLVHSNGNTYLHWYLQKPGQSPKLLIYKVSNRFSGVPDRFSGSGSGTDFTLKINRVEAEDLGVYFCSQSTHVPFTFGSGTKLEIKT
notes: as for B1
Question: B2 was tested. Which EC50 [1] did it give?
Answer: 0.118 nM

Question: And the EC50 [2]?
Answer: 0.151 nM

Question: What about the “solution mAb binding, % of PRLR binding” value [3] of the same binder?
Answer: -1%

Question: What about the “solution mAb binding, % of PRLR binding” value [4] of the same binder?
Answer: -1%

Question: What about the “solution mAb binding, % of PRLR binding” value [5] of the same binder?
Answer: -2%

Question: And the “solution mAb binding, % of PRLR binding” value [6]?
Answer: 1%

Question: What about the “solution mAb binding, % of PRLR binding” value [7] of the same binder?
Answer: 2%

Question: And the “solution mAb binding, % of PRLR binding” value [8]?
Answer: -1%

Question: What about the “solution mAb binding, % of PRLR binding” value [9] of the same binder?
Answer: -1%

Question: What about the “solution mAb binding, % of PRLR binding” value [10] of the same binder?
Answer: 0%

Question: And the “solution mAb binding, % of PRLR binding” value [11]?
Answer: 2%

Question: And the “solution mAb binding, % of PRLR binding” value [12]?
Answer: 48%

B3: Ab19 (antibody, human IgG1, kappa, V domains shown)
VH: EVQLVQSGAEVKKPGSSVKVSCKASGYTFTTYWMHWVRQAPGQGLEWIGEIDPSDSYSNYNQKFKDRATLTVDKSTSTAYMELSSLRSEDTAVYYCARNGGLGPAWFSYWGQGTLVTVSS
VL: DIQMTQSPSSVSASVGDRVTITCKASQYVGTAVAWYQQKPGKSPKLLIYSASNRYTGVPSRFSDSGSGTDFTLTISSLQPEDFATYFCQQYSSYPWTFGGGTKVEIKR
notes: humanized from Ab6; G1; also called Ab1 HC.1a and Ab1 LC.1a
Question: With B3 as the binder, how does the EC50 [1] read?
Answer: 0.0575 nM

Question: What about the EC50 [2] of the same binder?
Answer: 0.0614 nM

Question: And the “solution mAb binding, % of PRLR binding” value [3]?
Answer: -1%

Question: What about the “solution mAb binding, % of PRLR binding” value [4] of the same binder?
Answer: -1%

Question: What about the “solution mAb binding, % of PRLR binding” value [5] of the same binder?
Answer: -2%

Question: And the “solution mAb binding, % of PRLR binding” value [6]?
Answer: 0%

Question: And the “solution mAb binding, % of PRLR binding” value [7]?
Answer: 1%

Question: What about the “solution mAb binding, % of PRLR binding” value [8] of the same binder?
Answer: 0%

Question: What about the “solution mAb binding, % of PRLR binding” value [9] of the same binder?
Answer: 0%

Question: What about the “solution mAb binding, % of PRLR binding” value [10] of the same binder?
Answer: 0%

Question: What about the “solution mAb binding, % of PRLR binding” value [11] of the same binder?
Answer: 0%

Question: What about the “solution mAb binding, % of PRLR binding” value [12] of the same binder?
Answer: 122%

B4: Ab21 (antibody, human IgG1, kappa, V domains shown)
VH: EVQLVQSGAEVKKPGSSVKVSCKASGYTFTTYWMHWVRQAPGQGLEWIGEIDPSDSYSNYNQKFKDRATLTVDKSTSTAYMELSSLRSEDTAVYYCARNGGLGPAWFSYWGQGTLVTVSS
VL: EIVMTQSPATLSVSPGERATLSCKASQYVGTAVAWYQQKPGQSPRLLIYSASNRYTGVPARFSDSGSGTEFTLTISSLQSEDFAVYFCQQYSSYPWTFGGGTKVEIKR
notes: humanized from Ab6; G1; also called Ab1 HC.1a and Ab1 LC.2a
Question: How did the EC50 [1] turn out when B4 was run?
Answer: 0.0537 nM

Question: What about the EC50 [2] of the same binder?
Answer: 0.0728 nM

Question: What about the “solution mAb binding, % of PRLR binding” value [3] of the same binder?
Answer: -1%

Question: What about the “solution mAb binding, % of PRLR binding” value [4] of the same binder?
Answer: -1%

Question: What about the “solution mAb binding, % of PRLR binding” value [5] of the same binder?
Answer: -2%

Question: What about the “solution mAb binding, % of PRLR binding” value [6] of the same binder?
Answer: 1%

Question: And the “solution mAb binding, % of PRLR binding” value [7]?
Answer: 0%

Question: And the “solution mAb binding, % of PRLR binding” value [8]?
Answer: -1%

Question: And the “solution mAb binding, % of PRLR binding” value [9]?
Answer: -1%

Question: And the “solution mAb binding, % of PRLR binding” value [10]?
Answer: 0%

Question: And the “solution mAb binding, % of PRLR binding” value [11]?
Answer: 0%

Question: What about the “solution mAb binding, % of PRLR binding” value [12] of the same binder?
Answer: 104%
